± gives the uncertainty stated by the source.
Test: self-splicing fitness, log relative to wild type (ln ratio); higher = more splicing; Tetrahymena group I intron in knt gene, E. coli kanamycin selection, DiMSum; sequences stand for … in CUCUCU…GGAGGGAAAAGUUAUCAGGCAUGCACCUGGUAGCUAGUCUUUAAACCAAUAGAUUGCAUCGGUUUAAAAGGCAAGACCGUCAAAUUGCGGGAAAGGGGUCAACAGCCGUUCAGUACCAAGUCUCAGGGGAAACUUUGAGAUGGCCUUGCAAAGGGUAUGGUAAUAAGCUGACGGACAUGGUCCUAACCACGCAGCCAAGUCCUAAGUCAACAGAUCUUCUGUUGAUAUGGAUGCAGUUCACAGACUAAAUGUCGGUCGGGGAAGAUGUAUUCUUCUCAUAAGAUAUAGUCGGACCUCUCCUUAAUGGGAGCUAGCGGAUGAAGUGAUGCAACACUGGAGCCGCUGGGAACUAAUUUGUAUGCGAAAGUAUAUUGAUUAGUUUUGGAGUACUCGUGGUCG
In short: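 The eight P1ex-region nucleotides of an intron in the knt kanamycin-resistance gene on pET-22b(+) were all randomised and the library put into E. coli BL21(DE3). Six replicate transformations were grown overnight at 37°C or 30°C on LB agar with or without 25 μg/mL kanamycin, together with 100 μg/mL carbenicillin, 50 μM IPTG and 0.2% rhamnose. Colonies were pooled and amplicon-sequenced on an Illumina HiSeq 2500. Fitness from DiMSum is the error-weighted combination of wild-type-normalised replicate fold changes, kanamycin over none.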

Sequence	self-splicing fitness (ln) (30 °C)	self-splicing fitness (ln) (37 °C)
GGACAGCAAUAUUACGCCCC	-0.414 ± 0.41	
GGACAGCAAUAUUACGCUAC	-4.74 ± 0.27	-2.33 ± 0.24
GGACAGCAAUAUUACGCUAG	-1.85 ± 0.13	-0.798 ± 0.17
GGACAGCAAUAUUACGCUUC	-1.74 ± 0.19	
GGACAGCAAUAUUACGGACG	-0.636 ± 0.12	-0.327 ± 0.12
GGACAGCAAUAUUACGGAGG	-3.52 ± 0.15	-0.672 ± 0.096
GGACAGCAAUAUUACGGCGC	0.0232 ± 0.12	0.203 ± 0.13
GGACAGCAAUAUUACGGGCA	-0.731 ± 0.18	-0.477 ± 0.17
GGACAGCAAUAUUACGGUAG	-1.7 ± 0.061	-1.32 ± 0.073
GGACAGCAAUAUUACGGUUA	-0.28 ± 0.097	0.525 ± 0.11
GGACAGCAAUAUUACGUAAA	-0.529 ± 0.12	0.362 ± 0.16
GGACAGCAAUAUUACGUAAG	-0.165 ± 0.061	0.19 ± 0.079
GGACAGCAAUAUUACGUAGC	-0.679 ± 0.084	-0.618 ± 0.098
GGACAGCAAUAUUACGUAGG	-0.254 ± 0.053	-0.517 ± 0.063
GGACAGCAAUAUUACGUAGU	-1.61 ± 0.059	-1.15 ± 0.085
GGACAGCAAUAUUACGUCAA	-0.0403 ± 0.063	0.0855 ± 0.085
GGACAGCAAUAUUACGUCAC	-2.41 ± 0.17	-1.56 ± 0.2
GGACAGCAAUAUUACGUGAA	-0.306 ± 0.057	-0.142 ± 0.062
GGAGAGCAAUAUUACGAAGU	-3.48 ± 0.37	-1.33 ± 0.2
GGAGAGCAAUAUUACGAGGU	-3.34 ± 0.32	-3.01 ± 0.37

Sequence	self-splicing fitness (ln) (30 °C)	self-splicing fitness (ln) (37 °C)
GGAGAGCAAUAUUACGAUGU	-1.92 ± 0.15	-1.74 ± 0.28
GGAGAGCAAUAUUACGCAGC	-1.26 ± 0.17	-2.78 ± 0.26
GGAGAGCAAUAUUACGGAUC	-1.91 ± 0.12	-0.404 ± 0.14
GGAGAGCAAUAUUACGGAUU		-1.62 ± 0.22
GGAGAGCAAUAUUACGGCUA	-2.06 ± 0.32	-1.25 ± 0.18
GGAGAGCAAUAUUACGGGUU	-3.71 ± 0.24	-2.46 ± 0.19
GGAGAGCAAUAUUACGGUCG	-1.18 ± 0.25	-1.56 ± 0.29
GGAGAGCAAUAUUACGUAGG	-3.43 ± 0.25	-0.82 ± 0.25
GGAGAGCAAUAUUACGUCCU	-3.2 ± 0.24	-3.27 ± 0.43
GGAGAGCAAUAUUACGUCGA	-2.7 ± 0.32	-1.53 ± 0.26
GGAGAGCAAUAUUACGUCGU	-2.89 ± 0.21	-2.5 ± 0.27
GGAGAGCAAUAUUACGUGUG	-4.29 ± 0.34	-3.29 ± 0.27
GGAGAGCAAUAUUACGUUAG	-3.5 ± 0.23	-1.54 ± 0.41
GGAGAGCAAUAUUACGUUGU	-4.01 ± 0.19	-3.77 ± 0.24
GGAUAGCAAUAUUACGAAAG	-2.79 ± 0.48	
GGAUAGCAAUAUUACGAACC	-2.49 ± 0.36	-1.77 ± 0.28
GGAUAGCAAUAUUACGAAUC	-1.72 ± 0.088	-1.8 ± 0.12
GGAUAGCAAUAUUACGACUA	-1.37 ± 0.42	-1.11 ± 0.28
GGAUAGCAAUAUUACGAUCG	-0.534 ± 0.095	0.652 ± 0.14
